Non-standard residues stand in square brackets, D forms with d. No end group written: not given here. Abu = CC[C@H](N)C(=O)O
Biological target: HLA-A*0206 (human)
Test: 125I-probe peptide inhibition, purified HLA

IC50 | Binder
67 nM | [Abu]QLAKT[Abu]PV [p53.135B1B7]

Biological target: HLA-A*6801 (human)
Test: 125I-probe peptide inhibition, purified HLA

IC50 | Binder
140 nM | SS[Abu]MGGMNK [p53.240 (9-mer SSBMGGMNK)]

Biological target: HLA-B*0702 (human)
Test: 125I-probe peptide inhibition, purified HLA

IC50 | Binder
90 nM | FPTPAAPI [p53.79.F118]
34 nM | FPAAPTPAAPA [p53.76.F1 (11-mer)]
87 nM | FPAPAAPTPAA [p53.74.F1 (11-mer)]

The next lines start with the binder.

Binder | IC50
FPAPAAPTPA [p53.74.F1 (10-mer)] | 0.8 nM
FPPVAPAPAI [p53.70.F1110] | 290 nM
FPAPSWPI [p53.86.F118] | 120 nM

Biological target: HLA-B*3501 (human)
Test: 125I-probe peptide inhibition, purified HLA

IC50 | Binder
3.1 nM | FPAPSWPL [p53.86.F1]
720 nM | FPLPSQAI [p53.33.F1]

Second part, the binder before the results:

Binder | IC50
FPAPAAPTPA [p53.74.F1 (10-mer)] | 28 nM
FPAPSWPI [p53.86.F118] | 4.8 nM
FPAPAPSWPL [p53.84.F1] | 5.1 nM

Biological target: HLA-B*5101 (human)
Test: 125I-probe peptide inhibition, purified HLA

IC50 | Binder
809 nM | FPAAPTPAA [p53.76.F1 (9-mer)]

Biological target: HLA-B*5301 (human)
Test: 125I-probe peptide inhibition, purified HLA

IC50 | Binder
4 nM | FPAPSWPL [p53.86.F1]
6200 nM | FPTPAAPI [p53.79.F118]
8.5 nM | FPSWPLSSSI [p53.88.F1110]
291 nM | FPLPSQAI [p53.33.F1]

More lines, now with the values behind:

Binder | IC50
FPAAPTPAA [p53.76.F1 (9-mer)] | 620 nM
FPAPSWPI [p53.86.F118] | 3.3 nM
FPRMPEAAPPI [p53.63.F1111] | 5470 nM

Biological target: HLA-B*5401 (human)
Test: 125I-probe peptide inhibition, purified HLA

IC50 | Binder
9.1 nM | FPAPSWPL [p53.86.F1]
7.7 nM | FPTPAAPI [p53.79.F118]
1.3 nM | FPAAPTPAAPA [p53.76.F1 (11-mer)]
2.1 nM | FPAPAAPTPAA [p53.74.F1 (11-mer)]
2.4 nM | FPSWPLSSSI [p53.88.F1110]
83 nM | FPLPSQAI [p53.33.F1]
0.3 nM | FPRMPEAAPPV [p53.63F1]

Further lines, the binder ahead of its results:

Binder | IC50
FPAPAAPTPA [p53.74.F1 (10-mer)] | 1.1 nM
FPPVAPAPAI [p53.70.F1110] | 63 nM
FPAAPTPAA [p53.76.F1 (9-mer)] | 1 nM
FPAPSWPI [p53.86.F118] | 1.6 nM
FPAPAPSWPI [p53.84.F1110] | 1.2 nM
FPAPAPSWPL [p53.84.F1] | 1.7 nM
FPRMPEAAPPI [p53.63.F1111] | 2.9 nM

Biological target: HLA-B*0702 (human)
Test: competition vs 125I probe peptide, purified HLA

IC50 | Binder
74 nM | FPILTIITI [p53.249.F1I9]
6.5 nM | FPILTIITL [p53.249.F1]

Biological target: HLA-B*5101 (human)
Test: competition vs 125I probe peptide, purified HLA

IC50 | Binder
220 nM | FPALNKMI [p53.127.F1I8]
9 nM | FPILTIITI [p53.249.F1I9]

Biological target: HLA-B*5301 (human)
Test: competition vs 125I probe peptide, purified HLA

IC50 | Binder
93 nM | FPSWPLSSSV [p53.88.F1]
4 nM | FPILTIITI [p53.249.F1I9]

Biological target: HLA-B*5401 (human)
Test: competition vs 125I probe peptide, purified HLA

IC50 | Binder
0.3 nM | FPSWPLSSSV [p53.88.F1]
1.8 nM | FPILTIITI [p53.249.F1I9]
5 nM | FPILTIITL [p53.249.F1]

Biological target: HLA-A*2402 (human)
Test: competition vs 125I probe peptide, purified HLA

IC50 | Binder
30 nM | TYQGSYGFRF [p53.102.F10]

Biological target: HLA-A*0203 (human)
Test: 125I-probe peptide inhibition, purified HLA

IC50 | Binder
7.7 nM | [Abu]LLAKT[Abu]PV [p53.135B1L2B7]

Biological target: HLA-A*0206 (human)
Test: 125I-probe peptide inhibition, purified HLA
Remark: another data set of the same source

IC50 | Binder
64 nM | [Abu]LLAKT[Abu]PV [p53.135B1L2B7]

— US20040048790A1 (published 2004)
